We go through three molecules from US8580492B2, “Screening method for the identification of inhibitors of HIV Tat methylation by the lysine methyltransferase Set7/9” (priority 2007, dated 2013).

Ends that are not written are not given here.

Type in all cases: biochemical
The target in one test is T1, recombinant Set9 (Homo sapiens, UniProt Q8WTS6).
T1 construct: purchased Upstate
T1 sequence (Q8WTS6 whole entry, looked up): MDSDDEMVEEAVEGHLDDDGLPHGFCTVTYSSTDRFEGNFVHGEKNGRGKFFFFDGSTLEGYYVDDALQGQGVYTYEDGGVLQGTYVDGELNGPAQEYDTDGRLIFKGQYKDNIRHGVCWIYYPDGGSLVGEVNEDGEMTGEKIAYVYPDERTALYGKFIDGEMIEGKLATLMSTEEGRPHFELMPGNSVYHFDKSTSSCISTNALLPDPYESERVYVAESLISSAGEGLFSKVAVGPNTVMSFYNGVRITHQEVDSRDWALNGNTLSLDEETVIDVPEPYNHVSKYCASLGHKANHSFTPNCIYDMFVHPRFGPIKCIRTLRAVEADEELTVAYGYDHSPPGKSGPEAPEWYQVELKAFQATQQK
The test can be described thus: In vitro methylation assay with recombinant Set9 (radiolabeled SAM autoradiography; MALDI-TOF with nonradioactive SAM). The following applies: confirmed by MALDI-TOF. As for the experimental part:
(§1) Methylation assays were performed as described. (Nishioka et al. (2002) supra. In brief, 2 μg of calf thymus histones (Sigma), synthetic Tat protein or recombinant GST-IκBα were incubated with 0, 0.5, 1 or 2 μg of recombinant Set9 (specific activity 182 mU/mg, Upstate) or 0, 1 and 2 μg of G9a (specific activity 98 mU/mg, Upstate) in a buffer containing 50 mM TrisHCl pH 8.5, 5 mM MgCl2, 4 mM DTT and 1.1 μCi of ^3H-labeled S-adenosyl methionine (SAM) (Perkin Elmer) 30 min at 30° C. Reactions were stopped with sodium dodecyl sulfate (SDS) sample buffer and fractionated in a 15% SDS-polyacrylamide gel electrophoresis (SDS-PAGE) gel. After Coomassie staining and destaining, gels were treated with Amplify (Amersham Biosciences) for 30 min, dried and exposed to hyper-film (Kodak) overnight. The reactions performed with Tat peptides contained 100 μM of the different peptides and 1 μg of Set9 enzyme and were fractionated in a 10-20% Tris-Tricine gel (BioRad). For mass-spectrometry analysis, reactions were performed in the presence of 2 mM SAM (New England Biolabs) and analyzed in a MALDI-TOF instrument. In vitro acetylation assays were performed as described. Ott et al. (1999) supra.

For a further test, the target named is T2, p300 (Homo sapiens, UniProt Q09472).
T2 construct: Recombinant GST-p300 HAT was expressed in the BL21 strain of Escherichia coli; GST (N); made in house; host or cells: Escherichia coli BL21
T2 sequence (Q09472 1287-1663 limits assumed): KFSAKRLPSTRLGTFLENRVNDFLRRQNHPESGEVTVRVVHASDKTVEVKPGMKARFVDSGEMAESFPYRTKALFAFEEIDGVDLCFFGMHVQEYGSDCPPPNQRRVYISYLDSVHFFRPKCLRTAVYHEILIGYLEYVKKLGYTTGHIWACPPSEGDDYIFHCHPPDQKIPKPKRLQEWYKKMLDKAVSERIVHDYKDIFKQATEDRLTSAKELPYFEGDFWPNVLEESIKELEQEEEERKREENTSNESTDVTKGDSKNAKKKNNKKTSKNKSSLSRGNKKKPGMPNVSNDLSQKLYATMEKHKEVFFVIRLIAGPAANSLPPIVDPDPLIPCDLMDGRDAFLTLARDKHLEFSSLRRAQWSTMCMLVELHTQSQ
The experiment in a line: In vitro acetylation assay with recombinant p300 and 14C-AcCoA. The following applies: recombinant p300, 14C-AcCoA, autoradiography. As for the experimental part: Recombinant GST-p300 HAT was expressed in the BL21 strain of Escherichia coli and purified on glutathione-Sepharose beads (Amersham Pharmacia Biotech) following manufacturer's protocol.
as §1

In another test the test system is G9a. The experiment in a line: In vitro methylation assay with recombinant G9a. Conditions: recombinant G9a 0, 1 and 2 μg, radiolabeled SAM. The method, then:
as §1

Regarding “K50Ac: ARM peptide carrying an acetyl group at position 50 (ISYGRK(Ac)KRRQRRRP; not fully specified)”, in the test with recombinant Set9, the “methylation by Set9” value is reported as “No methylation”.
With “K51me: ARM peptide monomethylated at K51 (ISYGRKK(Me)RRQRRRP)”, the “acetylation by p300” value with p300 is on record as “acetylated”.

B1: Tat protein: full-length synthetic Tat protein (72 amino acids) (peptide, UniProt P04608 1-72, looked up, fragment)
chain: MEPVDPRLEPWKHPGSQPKTACTNCYCKKCCFHCQVCFITKALGISYGRKKRRQRRRAHQNSQTHQASLSKQ
On to B1, for which the “methylation by Set9” value with recombinant Set9 is on record as “methylated in response to increasing amounts of Set9 enzyme”. In the test on G9a, the “methylation by G9a” value is given as “did not result in methylation”.
